The values below come from paper PMC12384393.

The target in assay [1] is equine LH/CGR-N174Q (equine).
In assay [2] the target is equine LH/CGR-N195Q (equine).
The target in assay [3] is equine LH/CGR-N291Q (equine).
The target of assay [4] is equine LH/CGR-N299Q (equine).
Assay [5] deals with equine LH/CGR-N313Q (equine).
Assay [6] concerns the target equine LH/CGR-N50Q (equine).
Assay [7] has as its target equine LH/CGR-N99Q (equine).
For assay [8], the target named is equine lutropin hormone/choriogonadotropin receptor, wild type (equine LH/CGR-WT) (equine).
In assay [9] the target is equine LH/CGR-N174Q (equine). This is another data set of the same source.
In assay [10] the target is equine LH/CGR-N195Q (equine). This is another data set of the same source.
Assay [11] deals with equine LH/CGR-N291Q (equine). This is another data set of the same source.
Assay [12] has as its target equine LH/CGR-N299Q (equine). The source holds these as a separate data set.
For assay [13], the target named is equine LH/CGR-N313Q (equine). This is another data set of the same source.
The target in assay [14] is equine LH/CGR-N50Q (equine). The source holds these as a separate data set.
The target in assay [15] is equine LH/CGR-N99Q (equine). The source holds these as a separate data set.
Assay [16] has as its target equine lutropin hormone/choriogonadotropin receptor, wild type (equine LH/CGR-WT) (equine). This is another data set of the same source.

In the case of “recombinant equine chorionic gonadotropin (rec-eCG) (from UniProt P08751 21-169; P01220 25-120) (ligand)”, the EC50 of the cAMP response (HTRF) of transfected CHO-K1 cells stimulated with rec-eCG for 30 min amounted to 0.179 µg/mL in assay [1]; 0.136 µg/mL in assay [2]; 0.0184 µg/mL in assay [3]; 0.0269 µg/mL in [4]; 0.0347 µg/mL in assay [5]; 0.0177 µg/mL in assay [6]. In addition, the EC50 of the cAMP response (HTRF) of transfected CHO-K1 cells stimulated with rec-eCG for 30 min in assay [7] was found to be 0.0241 µg/mL; in [8], 0.0237 µg/mL. For the same substance, the t1/2 of the loss of cell surface receptor (anti-VSVG ELISA on cells) after rec-eCG treatment, 0-120 min is 3.3 min in assay [9]; 31.4 min in [10]; 14.3 min in assay [11]; 12.8 min in assay [12]; 13.3 min in assay [13]; 5.6 min in assay [14]. Besides, the t1/2 of the loss of cell surface receptor (anti-VSVG ELISA on cells) after rec-eCG treatment, 0-120 min in [15] turned out to be 5.2 min; in assay [16], 5.6 min.
